Source: the nanobody polyreactivity screen of Harvey et al. (2022)

Test: yeast display, Sf9 membrane polyspecificity reagent, FACS + sequencing; frameworks hold sequencing errors
Method in brief: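 A synthetic nanobody library was expressed on Saccharomyces cerevisiae BJ5465 by galactose induction for 36–48 hours. The library was stained for 1 hour at 4 °C with 10% biotinylated, detergent-solubilized Sf9 membrane reagent and enriched with streptavidin microbeads before FACS. Low and high (top ~1%) gates were set on anti-HA fluorescence for expression and streptavidin fluorescence for reagent binding, and each polyreactivity label reflects the gate of origin.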

Sequence	polyreactivity (PSR sort gate)
QVQLVESGGGLVQVGGSLRLSCAASGGIFCGNSMGWYRQAPGKERDLVAAISWDASTYYEDTVKGRFTISRDNAMNTVYLQMNSLKPEDTAVYYCNADIPYYFVYDAYDYWGQGTQVNVSS	low polyreactivity
QVQLVESGGGLVRAGGSLRLSCAASGFVYYVMGWYRQAPGKERELVAAISKGGGRTYYADSVKGRFTISRDNAKNTVYLQMNSLKPEDTAVYYCAAAFWRITRYGMDYWGQGTQVTVSS	high polyreactivity
QVQLVESGGGSVQAGGRLRLRCAASGLIFYYYAMGWYRQAPGKERELVADIDRGGDTYYADSVKGRFTISRDNAKNNVYLQMNSLKPEDTEVYYCAAVDSYGYVPVFGYWGQGTQVTVSS	low polyreactivity
QVQLVESGGGSVQAGGSLRLSCAASGFTFRYYAMGWYRQAPGKERELVAGISSRGGSTYYADSVKGRFTISRDNAKNTVYLQMNSLKPEDTAVYYCATERFLLGLGYDYWGQGTQVTVSS	high polyreactivity
QVQLVESGGGSVQAGGSLRLSCAASGFTFRYYAMGWYRQAPGKERELVARISYSGTSTYYADSVKGRFTISRDNAKNTVYLQMNSLKPEDTAVYYCAKLHRTYRQYIYDYWGQGTQVTVSS	high polyreactivity
QVQLVESGGGSVQAGGSLRLSCAASGRTFVFNAMGWYRQAPGKESELVAGISGSGGSTYYAESVKGRFTISRDNAKNNVYLQMNSLKPEDTAVYYCANTFPRKELDQESVSGLGYWGQGTQVTVSS	low polyreactivity
QVQLVESGGGSVQAGGSLRLSCAASGRTFYGYAMGWYRQAPGKERELGASISRDGSTNYADSVKGRFTISRDNAKNTVYLQMTSLKPEDTAVYYCAADIWYYRYPIYYYSYDYWGQGTQVNVSS	low polyreactivity
QVQLVESGGGSVQAGGSLRLSCAASGSIFAQYTMGWYRQAPGKERELVAVISINGVSTYYADSVKGRFTISRDNAKNTVYLQMNSLKPEDTAVYYCNAGISPYEALGYWGQGTQVTVSS	low polyreactivity
QVQLVESGGGSVQAGGSLRLSCAASGSTFRYYAMGWYRQAPGKERELVARITSRAGRTYYADSVKGRFTISRDNAKNTVYLQMNSLKPEDTAVYYCNTRDFSGYVHALSLYDYWGQGTQVTVSS	high polyreactivity
QVQLVESGGGSVQAGGSLRLSCSASGIIFWYYTMGRNRQAPGKERELVAAISCSSGITYYADSVKGRFTISRDNSKNTVYLQMNSLKPEDTAVYYCAARKFFWRSNYDYWGQGTQVTVSS	low polyreactivity
QVQLVESGGGVVHAGGSLRLSCAASGRIFRKYAMGWYRQAPGKESEFVAAITWSGGSTYYADSVKGRFTISRDNAKNTVYLQMNSLKPEDTAVYYCNAENGYSWDVFSDYWGQGTQVTVSS	low polyreactivity
QVQLVESGGGVVQAGCSLRISCAASGIFRKYAMGWYRQAPGKERELVAAITWGGGRTYYADSVKGRFTISRDNAKNTVYFQMNSLKPEDTAVYYCAAAKTGRGRGTTGYGYCGQGTQVTVSS	high polyreactivity
QVQLVESGGGVVQAGCSLRLSCAASGFTFRTNAMGWYRQAPGIEREFVAAISWSGGSTYYADSVKGRFTISRDNAKNTVYLQMNSLKPEDTAVYYCNADPFHWYYTNMYYWGQGTQVTVSS	high polyreactivity
QVQLVESGGGVVQAGGRLGLSCAASGSTFSQNPMGWYRQAPGKERELVASISSGGSTHYADSVKGRFTISRDNAKNTVYLQMNSLKPEDTAVYYCTTDLPNYVPFIVVEAYNYWGQGTQVTVSS	low polyreactivity
QVQLVESGGGVVQAGGRLRLSCAASGSIFTYYAMGWYRQAPGKERELVAAISYGGGSTYYADSVKGRFTISRDTAKNTVYLQMNSLKPEDTAVYYCNRVVGVKYGYWGQGTQVTVSS	high polyreactivity
QVQLVESGGGVVQAGGSLLLSCAASGRIFWYYAMGWYRQAHGKERELVATITRGGNTYFADSVKGRFTISRDNAKNTVYLQMNSLKPEDNAVYYCAASQRYSVIYYGFSEYDYWGQGTQVTVSS	high polyreactivity
QVQLVESGGGVVQAGGSLRISCAASGSTFGFNAMGWYRQAPGKERELVAAINNSGDSTYYADSVKGRFTISRDNAKNTVYLQMNSLKPEDTAVYYCAAPYLGRYYKNGYWGQGTQVTVSS	low polyreactivity
QVQLVESGGGVVQAGGSLRLICAASGSTFYINTMGWYRPAPGKERELVAAISWTGGRTYYADSVKGRFTISRDNAKNTVYLQLNSLKPEDTAVYYCAAYYNIPDRRRVGYDYWGQGTQVTVSS	high polyreactivity
QVQLVESGGGVVQAGGSLRLSCAASGITFEYNAMGWYRQAPGKERELVAAISLSSGSTYYADSVKGRFTISRDNAKNTVYLQMNCLKPEDTAVYYCNADWQSYGYLWHSSLYYYWGQGTQVTVSS	low polyreactivity
QVQLVESGGGVVQAGGSLRLSCAASGMGWYRQAPGKERELVATITTGGTYADSVKGRFTISRDNAKNTVYLQMNSLKPEDTAVYYCAADGLGSVYYLRYNYWGQGTQVTVSS	low polyreactivity
QVQLVESGGGVVQAGGSLRLSCAASGRIFDIYDMGWYRQAPGKERELVAAITSGRNTYYADSVKGRFTISRDNAKNTVYLQMNSLKPEDTAVSYCAAYSYPPLLWSYDYWGQGTQVTVSS	low polyreactivity
QVQLVESGGGVVQAGGSLRLSCAASGRIFERNAMGSYRQSPVKERELVARITSGGGTYYADSVKGRFTISRDNAKNTVYLQMNSLKPEDSAVYYSAVQYLYRKYRRYDYWGLGTQVTVSS	high polyreactivity

Sequence	polyreactivity (PSR sort gate)
QVQLVESGGGVVQAGGSLRLSCAASGRIFGYYAMGWYRQAPGTERELVAVISSGGSTYADSVKGRFTISRDNAKNPVYLQMNSLKPEDTAVYYCAARHYWSSYRTSRSRYDYWGQGTQVTVSS	high polyreactivity
QVQLVESGGGVVQAGGSLRLSCAASGRIFNWYAMGWYRQAPGKEREFVAAINWNGDSTHYADSVKGRFTISRDNAKNTVYLLMNSLKPEDTAVYYCNARVFVTRSYYWGQGTQVNVSS	low polyreactivity
QVQLVESGGGVVQAGGSLRLSCAASGRILRGYALGWYRPAPGTERELVAAITWRGGSTYYADSVKGRFTISRDNAKNTVYLQMNSLKPEDTAVYYCAADRAYRYEMDYWGQGTQVTVSS	high polyreactivity
QVQLVESGGGVVQAGGSLRLSCAASGSIFDPYAMGWYRHARGKERELVAALNSDGSTNYADSVKGRFTISRDNAKNTDYLQLNSLKPEDTAVYYCAARTFTLRGDDSWGQGSQVTVSS	low polyreactivity
QVQLVESGGGVVQAGGSLRLSCAASGSIFPENARGWYRQAPGKERELVAAITSSDSSTYYADSVKGRFTISRDNAKNTVYLQMNSLKPEDTAVYYCAAYRVGFRFREYYWGLGTQVTVSS	low polyreactivity
QVQLVESGGGVVQAGGSLRLSCAASGSIFPYNAMGWYRPAPGKERELVAVITSSGGSTYYADSVKGRFTISRDNAKNTVYLQMNSLKPEDTAVYYVAARGYNYYFGGYDYWGQGTQVTVSS	low polyreactivity
QVQLVESGGGVVQAGGSLRLSCAASGSPFGFYTMGGYRQAPGKERELVAAISWSTGRTYYADSVKGRFTISRDKAKNTVDLQMNSLKPEDTAVYYCAADYYWKLFHEPPAVYDYDYWGQGTQVTVSS	low polyreactivity
QVQLVESGGGVVQAGGSLRLSCAASGSTFRPYAMGWYRQAPGKERELVAAITFNGDTYADSVKGRFTISRDNAKNTVYLQMNSLKPEDTAVYYCAARNWYYYLRPWTSVGGYYWGQGTQVNVSS	high polyreactivity
QVQLVESGGGVVQAGGSLRLSCAASGSTFYAYAMGWYRQAPGKERELVAGISKRVGRTYYADSVKGRFTISRDNAKNTVYLQRNSLKPEDTAVYYCAAQFYLFYEYEYWGQGTQVTVSS	high polyreactivity
QVQLVESGGGVVQAGGSLRLSCAASGSTFYPYALGWYRQAPGKERELVAGITVIDGSTYYADSVKGRFTISRDNAKNTVYLQMNSLKPEDTAVYYCAVDAPNQVQEYGYWGQGTQVTVSS	low polyreactivity
QVQLVESGGGVVQAGGSLRLSCAASGSTLRDYVMGWYRQAPGKERELVAAITSRVDDTYYADSVKGRFTISRDNAKNNVYLEMNRLKPEDTAVYYCAADYSVTLRIGGYYWFYAFDYWGQGTQVTVSS	low polyreactivity
QVQLVESGGGVVQAGGSLRLSCAASGTTFSWYAMGGYRQAPGKERVLVAAISSGGSTNYADSVKGRFTISRDNAKNTVYLQMNSLKPEDTAVYYCAAVWSRYLISYSTGWWFEYWGQGTQVTVSS	low polyreactivity
QVQLVESGGGVVQAGGSLRLSCAATGFTFAANTKGWYRQPPGKERELVADISGRGDRTSYADSVKGRFTISRDNAKYTVYLQINSLKPEDTAVYYCAVDIFYYSNVHYYYWGQGTQVTVSS	low polyreactivity
QVQLVESGGGVVQAGGSLRLSCAATGSTFYSYAMGWYRQAPGKEREFVASITRSGVRTYYADSVKGRFTISRDNAKNTVYLQMNSLKPDDTAFYYCAAERYYFPRSYRYGYWGQGTQVTVSS	low polyreactivity
QVQLVESGGGVVQAGGSLRLSCAGSGFTFIYYAMGWYRQAPGTERELVAAITTSRGRTDSADSVKGRVTISRDNAKNTVYLQMNSLKPEDTAVYYCNAVVYTKYYFIPWYPYDYWGHGTQVTVSS	high polyreactivity
QVQLVESGGGVVQAGGSLRLSCASSGRTFSRYTMGWYRQAPGKERELVAVITASGTSTYYADSVKGRFTISRDNAKYTVYLQMISQKPEDTAVYYCAAYYPTYYRYSSLTMNYWGQGTQVTVSS	high polyreactivity
QVQLVESGGLLVQAGGSLRLSCAASGSTFYYNDMGWYRQAPGKEREFVAAISSRGGSTYDADSVKGRFTISRDNAKNTVYLQMNSLKPEDTAVYYCAAKDRHRYDWGQGTQVTVSS	high polyreactivity
QVQLVESGGLLVQAGGSLRLTCAASGSTFGRNAMGWYRQATGKERQLVAAITASGGTTYYADSVKGRFTISRDNAKNTVYLHMNSLKPEDTAVYDCARAGHFSFKYDYWGQGTQVTVSS	low polyreactivity
QVQLVESGGRIVQAGGSLRLSCAASGIIFYLYTMGWYRQAPGKERQFVADISSGTTTYYADSVKGRFTISRDNAKNTVYLQMNSLKPADSAVYYCAAQLFRELYWGQGTQVTVSS	high polyreactivity
QVQLVESGGRKVQAGGSLRLICAASGSIFYAYTMGRYRQAPGKERELSTYADSVKGRFTISRDNAKNTVYLQMNSLKPEDTAVYYCNARFYKKTLSYRVKYRMEYWGQGTQVTVSS	low polyreactivity
QVQLVESGGRLFQAGGSLRLSCAASGRNFCRYVMGWYRQAPGKERELVATISSGGSTNYADSVKGRFTISRDNAKNTVYLQMNSMKTEVTAVYYSAAYIYDGFWVYPYYPYDYWGQGTQVTVSS	low polyreactivity
